Source: patent publication US20140147439A1 (NVIP, published 2014)

Molecular target: T1, human complement C1q (from human serum) (human, UniProt P02745 23-245; P02746 28-253; P02747 29-245)
T1 construct: Native C1q in human serum diluted 1/100
Assay: ELISA: antibody captured on NGF-coated plate, incubated with human serum, bound C1q detected with sheep anti-C1q-HRP, absorbance at 450 nm
Experimental: The plates were washed and then incubated with human serum and bound complement C1q was measured by binding of anti-human C1q polyclonal antibody HRP and developed as above.
Plates were coated with 100 μl/well of 5 μg/ml mouse NGF and blocked with 5% BSA/PBS. […] The plates were washed and incubated for 1 hour at room temperature with 100 μl/well of human serum diluted 1/100 in veronal buffered saline containing 0.5 mM MgCl₂, 2 mM CaCl₂, 0.05% Tween-20, 0.1% gelatin and 0.5% BSA. After washing, plates were incubated with 100 μl of a 1/800 dilution of sheep anti-C1q-HRP (Serotec) in PBS/1% BSA. After washing, plates were developed by the addition of 100 μl TMB substrate (Thermo Scientific). Development was stopped by the addition of 100 μl of 2NH₂SO₄ and absorbance read at 450 nm.

T1 sequence (P02745 23-245 limits assumed, chain 1 of 3): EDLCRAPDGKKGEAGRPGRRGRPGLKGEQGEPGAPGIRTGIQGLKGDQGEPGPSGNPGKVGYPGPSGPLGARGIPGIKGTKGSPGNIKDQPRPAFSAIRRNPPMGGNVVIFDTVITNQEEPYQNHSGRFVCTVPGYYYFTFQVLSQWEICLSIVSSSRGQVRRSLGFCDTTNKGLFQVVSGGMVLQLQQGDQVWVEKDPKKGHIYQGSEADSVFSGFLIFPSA
T1 sequence (P02746 28-253 limits assumed, chain 2 of 3): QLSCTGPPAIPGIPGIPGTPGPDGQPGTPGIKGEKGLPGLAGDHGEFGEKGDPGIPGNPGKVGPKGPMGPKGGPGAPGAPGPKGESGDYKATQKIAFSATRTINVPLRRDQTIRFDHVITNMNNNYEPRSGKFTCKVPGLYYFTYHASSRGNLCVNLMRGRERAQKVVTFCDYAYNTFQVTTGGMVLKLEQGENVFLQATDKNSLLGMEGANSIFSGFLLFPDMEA
T1 sequence (P02747 29-245 limits assumed, chain 3 of 3): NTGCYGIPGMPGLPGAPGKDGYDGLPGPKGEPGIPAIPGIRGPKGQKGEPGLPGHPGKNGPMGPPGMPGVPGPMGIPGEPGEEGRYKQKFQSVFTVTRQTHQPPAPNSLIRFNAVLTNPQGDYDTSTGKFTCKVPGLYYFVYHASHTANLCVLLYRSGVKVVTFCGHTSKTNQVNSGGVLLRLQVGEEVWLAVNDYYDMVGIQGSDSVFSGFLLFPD

B1: felinised anti-NGF monoclonal antibody (heavy chain SEQ ID NO:6, light chain SEQ ID NO:5) (antibody, IgG2)
heavy: QVQLVESGGDLVQPGGSLRLTCAASGFSLTNNNVNWVRQAPGKGLEWMGGVWAGGATDYNSALKGRFTISRDNAKNTLYLQMNSLKTEDTATYYCARDGGYSSSTLYAMDAWGQGTLVTVSSASTTAPSVFPLAPSCGTTSGATVALACLVLGYFPEPVTVSWNSGALTSGVHTFPAVLQASGLYSLSSMVTVPSSRWLSDTFTCNVAHPPSNTKVDKTVRKTDHPPGPKPCDCPKCPPPEMLGGPSIFIFPPKPKDTLSISRTPEVTCLVVDLGPDDSDVQITWFVDNTQVYTAKTSPREEQFNSTYRVVSVLPILHQDWLKGKEFKCKVNSKSLPSPIERTISKAKGQPHEPQVYVLPPAQEELSRNKVSVTCLIKSFHPPDIAVEWEITGQPEPENNYRTTPPQLDSDGTYFVYSKLSVDRSHWQRGNTYTCSVSHEALHSHHTQKSLTQSPGK
light: DIVMTQTPLSLSVTPGEPASISCRASEDIYNALAWYLQKPGQSPRRLIYNTDTLHTGVPDRFSGSGSGTDFTLRISRVEADDVGVYFCQHYFHYPRTFGPGTKLEIKRSDAQPSVFLFQPSLDELHTGSASIVCILNDFYPKEVNVKWKVDGVVQTKASKESTTEQNSKDSTYSLSSTLTMSRTEYQSHEKFSCEVTHKSLASTLVKSFNRSECQRE
notes: Felinised alphaD11 variable domains with a feline HC2 (IgG2) heavy chain constant region and a feline kappa constant domain; also called felinised antibody; felinised anti-NGF MAb
binding result: no binding (tested: human serum diluted 1/100)
